Experiment [1] addresses T1, canine IL4R (Examples 16, 18 and 19; construct not stated) (canine, biotinylated; sites not stated).
T1 construct: also called Biotinylated canine IL4R; canine IL4R extracellular domains
T1 chain: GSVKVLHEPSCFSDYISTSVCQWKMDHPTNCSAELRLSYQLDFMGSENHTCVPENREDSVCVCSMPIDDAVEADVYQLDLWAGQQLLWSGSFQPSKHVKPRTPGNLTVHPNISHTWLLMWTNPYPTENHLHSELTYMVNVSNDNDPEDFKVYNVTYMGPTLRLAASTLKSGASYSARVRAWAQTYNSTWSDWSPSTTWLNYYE
Put plainly: method not stated.

For experiment [2], the target named is T2, Canine IL4R-ECD_C-His6 (processed) (canine, biotinylated through amine chemistry; sites not stated).
T2 construct: Whole construct (ECD, linker, His6) is one entry; Captured biotinylated on streptavidin tips or wells
T2 chain: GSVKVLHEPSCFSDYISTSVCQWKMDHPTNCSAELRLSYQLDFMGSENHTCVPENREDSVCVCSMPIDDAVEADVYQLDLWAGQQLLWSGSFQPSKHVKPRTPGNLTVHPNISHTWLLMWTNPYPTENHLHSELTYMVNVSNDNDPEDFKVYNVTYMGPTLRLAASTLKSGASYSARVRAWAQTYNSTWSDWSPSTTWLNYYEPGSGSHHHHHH
Put plainly: BLI (Octet), biotinylated IL4R-ECD_C-His6 on streptavidin tips, 1:1 fit. As for the experimental part:
The binding analysis was performed using an Octet Biosensor as follows. Briefly, canine IL4R-ECD_C-His6 (SEQ ID NO: 107) was biotinylated through amine chemistry. The free unreacted biotin was removed by extensive dialysis. Biotinylated canine IL4R-ECD_C-His6 was captured on streptavidin sensor tips. The association of either Clone B or I antibody and canine IL4R-ECD_C-His6 (25 μg/mL) was monitored for 600 seconds. Dissociation was monitored for 600 seconds. A buffer only blank curve was subtracted to correct for any drift. The data were fit to a 1:1 binding model using ForteBio™ data analysis software to determine the kₒₙ, koff, and the Kd. The buffer for dilutions and all binding steps was 20 mM phosphate, 150 mM NaCl, pH 7.2.

Experiment [3] deals with T3, Canine IL4R-ECD_C-HuFc_His6 (processed) (canine).
T3 construct: Whole construct (ECD, linker, human Fc, His6) is one entry
Put plainly: BLI (Octet), IL4R-ECD_C-HuFc_His6 on anti-human Fc tips. As for the experimental part: An alternative binding assay was performed also using an Octet Biosensor. Canine IL4R-ECD_C-HuFc_His6 (SEQ ID NO: 109) was captured on anti-human Fc-bound sensor tips. The association of either Clone B or I antibody and canine IL4R-ECD_C-HuFc_His6 was monitored for 600 seconds. Dissociation was monitored for 600 seconds. The buffer for dilutions and all binding steps was 20 mM phosphate, 150 mM NaCl, pH 7.2. […] In addition, amine conjugation may affect the affinity of canine IL4R-ECD_C-His6 to interact with Clone B and I antibodies.
A general note: BLI is a label-free optical method that tracks binding on a fibre tip over time.

Experiment [4] concerns the target T4, Canine/Human IL4R-ECD_C-HuFc_His6 Hybrid 13 (canine/human hybrid).
T4 construct: Canine G1-S89 and P110-P204; human G90-H109
Kind of experiment: Western blot, non-reducing.

Experiment [5] addresses T5, Canine/Human IL4R-ECD_C-HuFc_His6 Hybrid 1 (canine/human hybrid).
T5 construct: Canine G1-N55, human N56-H209, human Fc-His6; Tested as 3-fold concentrated 293 supernatant
Kind of experiment: Western blot, non-reducing. In general terms: In western blotting, separated proteins are transferred to a membrane and probed.

The target in experiment [6] is Equine IL4R-ECD_C-HuFc_His6 (processed) (equine). Kind of experiment: Western blot, non-reducing.
For experiment [7], the target named is Murine IL4R-ECD_C-HuFc_His6 (processed) (murine). Kind of experiment: Western blot, non-reducing.
The target in experiment [8] is T6, Canine/Human IL4R-ECD_C-HuFc_His6 Hybrid 6 (canine/human hybrid).
T6 construct: Canine G1-N55 and P110-P204; human N56-H109
Kind of experiment: Western blot, non-reducing.

Experiment [9] has as its target Human IL4R-ECD_C-HuFc_His6 (processed) (human). Kind of experiment: Western blot, non-reducing.
In experiment [10] the target is Feline IL4R-ECD_C-HuFc_His6 (processed) (feline). Kind of experiment: BLI (Octet), biotinylated feline IL4R-ECD_C-HuFc_His6 on streptavidin tips, antibody 25 µg/mL, 1:1 fit. As for the experimental part:
This finding was consistent with in vitro binding affinity measured by Octet Biosensor. Biotinylated feline IL4R-ECD_C-HuFc_His6 (SEQ ID NO: 111) was captured on streptavidin sensor tips. The association of Clone I antibody (25 μg/mL) and feline IL4R-ECD_C-HuFc_His6 was monitored for 600 seconds. Dissociation was monitored for 600 seconds. A buffer only blank curve was subtracted to correct for any drift. The data were fit to a 1:1 binding model using ForteBio™ data analysis software to determine the kₒₙ, koff, and the Kd. The buffer for dilutions and all binding steps was 20 mM phosphate, 150 mM NaCl, pH 7.2.

Experiment [11] concerns the target Human IL4R-ECD_C-HuFc_His6 (processed) (human). Kind of experiment: Western blot.
In experiment [12] the target is T3, Canine IL4R-ECD_C-HuFc_His6 (processed). Kind of experiment: Western blot.
Experiment [13] has as its target T1, canine IL4R (Examples 16, 18 and 19; …). Kind of experiment: BLI (ForteBio OctetRed), biotinylated canine IL4R on streptavidin tip.
Experiment [14] shares this target. Put plainly: BLI (ForteBio OctetRed).

Positions count from the first letter of the chain named.

Human IL4R-ECD_C-HuFc_His6 (processed) (human), sequence (chain, as listed by the source limits assumed): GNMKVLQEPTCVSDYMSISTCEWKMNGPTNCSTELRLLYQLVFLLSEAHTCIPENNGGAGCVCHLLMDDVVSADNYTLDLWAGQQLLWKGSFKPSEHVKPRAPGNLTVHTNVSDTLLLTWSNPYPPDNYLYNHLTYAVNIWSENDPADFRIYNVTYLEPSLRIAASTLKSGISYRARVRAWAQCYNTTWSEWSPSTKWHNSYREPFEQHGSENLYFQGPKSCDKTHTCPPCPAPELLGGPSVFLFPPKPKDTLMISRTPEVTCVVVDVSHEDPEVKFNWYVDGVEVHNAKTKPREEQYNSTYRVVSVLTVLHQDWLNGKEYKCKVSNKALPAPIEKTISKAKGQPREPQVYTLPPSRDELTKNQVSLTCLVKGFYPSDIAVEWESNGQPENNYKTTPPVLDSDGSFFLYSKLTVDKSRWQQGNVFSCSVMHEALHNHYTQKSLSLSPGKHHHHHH
T6 sequence (chain, as listed by the source limits assumed): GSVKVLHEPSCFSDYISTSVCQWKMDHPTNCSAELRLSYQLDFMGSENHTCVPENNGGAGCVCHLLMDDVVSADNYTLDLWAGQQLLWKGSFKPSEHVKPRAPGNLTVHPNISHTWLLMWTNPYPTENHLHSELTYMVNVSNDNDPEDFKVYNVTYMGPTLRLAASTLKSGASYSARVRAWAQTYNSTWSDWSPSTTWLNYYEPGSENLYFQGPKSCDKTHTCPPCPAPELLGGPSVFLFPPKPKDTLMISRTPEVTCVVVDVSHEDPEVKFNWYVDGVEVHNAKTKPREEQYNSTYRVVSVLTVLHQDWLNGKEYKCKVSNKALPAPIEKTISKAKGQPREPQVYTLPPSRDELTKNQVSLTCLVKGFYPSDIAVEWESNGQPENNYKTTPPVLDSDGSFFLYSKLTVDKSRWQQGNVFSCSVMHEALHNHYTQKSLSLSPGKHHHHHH
T4 sequence (chain, as listed by the source limits assumed): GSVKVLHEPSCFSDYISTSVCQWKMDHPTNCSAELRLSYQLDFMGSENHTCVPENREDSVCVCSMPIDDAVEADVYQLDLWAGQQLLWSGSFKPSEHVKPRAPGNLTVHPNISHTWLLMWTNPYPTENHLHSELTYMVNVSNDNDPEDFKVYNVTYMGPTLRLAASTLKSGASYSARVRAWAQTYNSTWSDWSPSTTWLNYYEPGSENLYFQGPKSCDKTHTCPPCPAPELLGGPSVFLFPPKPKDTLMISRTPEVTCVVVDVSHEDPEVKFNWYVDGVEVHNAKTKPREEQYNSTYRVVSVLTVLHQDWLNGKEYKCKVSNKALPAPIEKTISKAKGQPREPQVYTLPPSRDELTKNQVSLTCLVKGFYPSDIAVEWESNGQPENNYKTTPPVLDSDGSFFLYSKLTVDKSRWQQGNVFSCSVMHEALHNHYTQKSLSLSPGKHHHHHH
T5 sequence (chain, as listed by the source limits assumed): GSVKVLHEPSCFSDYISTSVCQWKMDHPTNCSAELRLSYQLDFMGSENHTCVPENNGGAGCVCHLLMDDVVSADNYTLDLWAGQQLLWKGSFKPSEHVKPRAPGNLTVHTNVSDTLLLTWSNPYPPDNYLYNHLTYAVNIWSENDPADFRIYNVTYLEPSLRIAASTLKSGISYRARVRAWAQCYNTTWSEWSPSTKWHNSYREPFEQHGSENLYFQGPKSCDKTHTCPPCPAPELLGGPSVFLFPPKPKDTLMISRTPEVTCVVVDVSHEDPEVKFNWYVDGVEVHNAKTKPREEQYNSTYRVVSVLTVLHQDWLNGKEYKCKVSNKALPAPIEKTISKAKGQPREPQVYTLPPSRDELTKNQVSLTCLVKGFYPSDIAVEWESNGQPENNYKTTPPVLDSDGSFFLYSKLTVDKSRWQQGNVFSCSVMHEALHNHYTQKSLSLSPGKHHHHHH
Equine IL4R-ECD_C-HuFc_His6 (processed) (equine), sequence (chain, as listed by the source limits assumed): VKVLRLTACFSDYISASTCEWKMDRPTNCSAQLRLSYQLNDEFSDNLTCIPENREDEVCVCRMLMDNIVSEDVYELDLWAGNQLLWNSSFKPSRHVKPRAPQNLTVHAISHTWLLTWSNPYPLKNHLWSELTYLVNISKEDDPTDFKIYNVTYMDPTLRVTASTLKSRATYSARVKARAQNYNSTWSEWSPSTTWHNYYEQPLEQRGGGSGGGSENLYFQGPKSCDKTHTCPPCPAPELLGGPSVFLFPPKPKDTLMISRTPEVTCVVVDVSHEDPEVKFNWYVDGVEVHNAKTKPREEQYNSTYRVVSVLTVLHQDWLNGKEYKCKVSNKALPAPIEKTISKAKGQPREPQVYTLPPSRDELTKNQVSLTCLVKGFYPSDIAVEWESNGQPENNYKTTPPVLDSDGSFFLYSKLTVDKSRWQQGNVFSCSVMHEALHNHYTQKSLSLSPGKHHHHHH
Murine IL4R-ECD_C-HuFc_His6 (processed) (murine), sequence (chain, as listed by the source limits assumed): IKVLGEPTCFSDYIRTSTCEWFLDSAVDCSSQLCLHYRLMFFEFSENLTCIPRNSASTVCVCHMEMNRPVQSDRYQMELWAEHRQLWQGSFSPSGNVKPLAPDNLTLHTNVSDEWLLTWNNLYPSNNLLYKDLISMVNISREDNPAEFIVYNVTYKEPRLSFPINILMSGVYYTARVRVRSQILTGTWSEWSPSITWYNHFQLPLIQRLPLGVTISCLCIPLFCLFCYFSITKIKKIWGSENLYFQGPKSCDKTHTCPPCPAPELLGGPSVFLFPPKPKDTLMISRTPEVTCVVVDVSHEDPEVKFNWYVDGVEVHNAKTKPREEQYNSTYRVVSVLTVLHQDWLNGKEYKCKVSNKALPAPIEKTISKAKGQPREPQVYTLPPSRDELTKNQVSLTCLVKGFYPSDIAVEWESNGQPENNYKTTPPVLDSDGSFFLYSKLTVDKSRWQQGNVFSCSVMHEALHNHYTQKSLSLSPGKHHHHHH
Feline IL4R-ECD_C-HuFc_His6 (processed) (feline), sequence (chain, as listed by the source limits assumed): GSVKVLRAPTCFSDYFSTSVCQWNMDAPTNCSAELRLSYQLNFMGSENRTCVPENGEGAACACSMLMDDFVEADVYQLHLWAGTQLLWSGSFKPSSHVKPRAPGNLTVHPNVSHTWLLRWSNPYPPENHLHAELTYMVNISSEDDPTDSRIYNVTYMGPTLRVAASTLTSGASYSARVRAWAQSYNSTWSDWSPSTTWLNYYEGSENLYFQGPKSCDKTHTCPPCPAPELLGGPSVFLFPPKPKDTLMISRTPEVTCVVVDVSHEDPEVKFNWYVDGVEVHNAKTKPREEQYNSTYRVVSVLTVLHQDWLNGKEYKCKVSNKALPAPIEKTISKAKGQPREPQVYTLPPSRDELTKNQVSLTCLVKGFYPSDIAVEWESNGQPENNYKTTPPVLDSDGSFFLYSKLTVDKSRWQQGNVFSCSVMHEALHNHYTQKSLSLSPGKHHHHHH

B1: caninized M9 antibody, variable HC v1 with variant canine IgG-B (C1q-, CD16-) and variable LC v1 with canine kappa (antibody, V domains shown)
VH: EVQLVESGGDLVKPGGSLRLSCAASGFTFSSFGMHWVRQAPGKGLEWVAYIRSDSSTIYYADAVKGRFTISRDNAKNTLYLQMNSLRAEDTAMYYCARSGYYGSFSLTYWGQGTLVTVSS
VL: DIMLTQTPLSLSVSPGEPASISCSASSSVSSNYLHWYLQKAGQSPRLLIYRTSNLPSGVPDRFSGSGSGTDFTLRIGRVEAEDAGIYYCQQGSGMLTFGQGTRLEVRR
notes: also called caninized M9 HC v1 / LC v1
With B1, in [1], the Kd (as a rule, the constant that tells how readily two partners part at equilibrium) was ≤ 1 nM.

B2: caninized M9 antibody, variable HC v2 with variant canine IgG-B (C1q-, CD16-) and variable LC v1 with canine kappa (antibody, V domains shown)
VH: B1 VH with A23V, E46Q
VL: B1 VL
notes: also called caninized M9 HC v2 / LC v1
For the molecule B2, the Kd in experiment [1] was ≤ 1 nM.

B3: Clone B mouse monoclonal antibody (antibody, mouse IgG1, kappa, V domains shown)
VH: EVKLEESGPELVKPGASVKMSCKASGYTFTSYVMHWVKQKPGQGLEWIGYINPKNDGTFYNGKFKGKATLTSDKSSSTAYMELSSLTSEDSAVYYCAAFNYGIAYWGQGTLVTVSS
VL: IVLTQTPSSLSASLGERVSLTCRASQEISGYLSWLQQKPDGTIKRLIYAASTLDSGVPKRFSGSRSGSDFSLTISSLESEDFADYYCVQYASYPWTFGGGARLEIKR
notes: also called Clone B antibody; anti-IL4R-mAb Clone B
For the molecule B3, the Kd in [2] is 2.03 nM; in [3], ~0.1 nM.

B4: Clone I mouse monoclonal antibody (antibody, mouse IgG1, kappa, V domains shown)
VH: B3 VH with K3Q, E5Q, E6Q, K54N, N100Y, I103F, S116A
VL: DIVLTQSPSSLSASLGERVSLTCRASQEISGYLSWLQQKPDGTIKRLIYAASTLDSGVPKRFSGSRSGSDFSLTISSLESEDFADYYCLQYASYPWTFGGGAKLEIKR
notes: also called Clone I antibody; anti-IL4R-mAb Clone I
Take B4: the binding result is “binds” in experiment [4]; “binds” in experiment [5]; “no binding (tested: Clone I 0.3 µg/mL; 0.1 µg/lane)” in [6]; “no binding (tested: Clone I 0.3 µg/mL; 0.1 µg/lane)” in experiment [7]; “binds” in experiment [8]; “no binding (tested: Clone I 0.3 µg/mL; 0.1 µg/lane)” in [9]. The molecule further displayed a Kd in [10] of 1.1 nM.

B5: caninized M3 antibody, variable HC v1 with variant canine IgG-B (C1q-, CD16-) and variable LC v1 with canine kappa (antibody, V domains shown)
VH: EVQLVESGGDLVKPAGSLRLSCTVSGFSLSRYSVHWVRQAPGKGLEWLGMIWGGGSTDYNSVVKGRFTISRDNAKNTVYLQMNSLRAEDTAMYYCARTYRGYALDYWGQGTLVTVSS
VL: DIVMTQTPLSLSVSPGEPASISCRASQDISNYLNWYLQKAGQSPRLLIYYTSRLQSGVPDRFSGSGSGTDFTLRIGRVEAEDAGIYFCQQANTLPLTFGQGTRLEVRR
notes: also called caninized M3 HC v1 / LC v1
As for B5, the Kd in [1] was ≤ 1 nM.

B6: caninized M3 antibody, variable HC v2 with variant canine IgG-B (C1q-, CD16-) and variable LC v1 with canine kappa (antibody, V domains shown)
VH: ELTLQESGPGLVKPSQTLSLTCTVSGFSLSRYSVHWIRQPRGRGLELLGMIWGGGSTDYNPAFQGRISITADTAKNQFSLQLSSMTTEDTAVYYCARTYRGYALDYWGQGTLVTVSS
VL: B5 VL
notes: also called caninized M3 HC v2 / LC v1
Take B6: the Kd in [1] was ≤ 1 nM.

B7: M9 mouse monoclonal antibody (antibody, V domains shown)
VH: DVQLVESGGGLVQPGGSRKLSCAASGFTFSSFGMHWVRQAPEKGLEWVAYIRSDSSTIYYADTVKGRFTISRDNPKNTLFLQMTSLRSEDTAMYYCARSGYYGSFSLTYWGQGTLVTVSA
VL: EIVLTQSPTTMAASPGEKITITCSASSSVSSNYLHWYQQKPGFSPKLLIYRTSNLPSGVPARFFGSGSGTSYSLTIGTMEAEDVATYYCQQGSGMLTFGAGTKLELK
notes: Mouse antibody purified from hybridoma culture; also called Clone M9
Turning to B7, the binding result was “no binding” in experiment [11] and “binds” in experiment [12]. Also, the Kd in experiment [13] is < 10 nM.

B8: murine-canine chimeric M9 antibody (canine IgG-B, canine kappa) (antibody, V domains shown)
VH: B7 VH
VL: B7 VL
notes: also called chimeric canine IgG-B (M9)
For B8, the Kd in [14] is < 10 nM.

B9: M8 mouse monoclonal antibody (antibody, V domains shown)
VH: QVQLQQSGPELVKPGALVKISCKASGYTFTSYDINWVKQRPGQGLEWIGWIYPGDGSTKYNEKFKGKATLTADKSSSTAYMQLSSLTSEDSAVYFCARSSFVVWGAGTTVTVSS
VL: DIQMTQSSSYLSVSLGGRVTITCKASDPINNWLAWYQQKPGNAPRLLISGATSLETGVPSRISGSGSGKDYSLSITSLQTEDIATYYCHQYWSIPYTFGGGTKLEIK
notes: Mouse antibody purified from hybridoma culture; also called Clone M8
With B9, the binding result in experiment [11] is given as “no binding”; in experiment [12], “binds”. Also, the Kd in experiment [13] was < 10 nM.

B10: murine-canine chimeric M8 antibody (canine IgG-B, canine kappa) (antibody, V domains shown)
VH: B9 VH
VL: B9 VL
notes: also called chimeric canine IgG-B (M8)
With B10, the Kd in experiment [14] is < 10 nM.

B11: M3 mouse monoclonal antibody (antibody, V domains shown)
VH: QVQLKESGPGLVAPSQSLSITCTVSGFSLSRYSVHWVRQPPGKGLEWLGMIWGGGSTDYNSVFKSRLSISKDNSKSQVFLKMNSLQTDDTAMYYCARTYRGYALDYWGQGTSVTVSS
VL: DIQMTQTTSSLSASLGDRVTISCRASQDISNYLNWYQQKPDGTVKLLIYYTSRLQSGVPSRFSGSGSGTDYCLTISNLEQEDIATYFCQQANTLPLTFGSGTKLELK
notes: Mouse antibody purified from hybridoma culture; also called Clone M3
For B11, the binding result in experiment [11] was “no binding”; in experiment [12], “binds”. In addition, the Kd in experiment [13] was < 10 nM.

B12: murine-canine chimeric M3 antibody (canine IgG-B, canine kappa) (antibody, V domains shown)
VH: B11 VH
VL: B11 VL
notes: also called chimeric canine IgG-B (M3)
For the molecule B12, in experiment [14], the Kd is < 10 nM.

B13: murine-canine chimeric M5 antibody (canine IgG-B, canine kappa) (antibody, V domains shown)
VH: B11 VH
VL: B11 VL
notes: also called chimeric canine IgG-B (M5)
With B13, the Kd in [14] is < 10 nM.

B14: M5 mouse monoclonal antibody (antibody, V domains shown)
VH: B11 VH
VL: B11 VL
notes: Mouse antibody purified from hybridoma culture; also called Clone M5
With B14, the Kd in [13] is < 10 nM.

(Values after patent US20240067738A1 (ELANCO US, published 2024).)
